Tests used:
Axl = Axl (human, UniProt P30530 26-449, biotinylated (site not stated)); assay: BLI
[1] = biological target: human Axl expressed on the surface of cells (human, UniProt P30530 26-894); assay: flow cytometry
[2] = biological target: recombinant human Axl-msFc (human, UniProt P30530 26-449); assay: ELISA; 4-P fit parameter C
recombinant human Axl-msFc, sequence (P30530 26-449): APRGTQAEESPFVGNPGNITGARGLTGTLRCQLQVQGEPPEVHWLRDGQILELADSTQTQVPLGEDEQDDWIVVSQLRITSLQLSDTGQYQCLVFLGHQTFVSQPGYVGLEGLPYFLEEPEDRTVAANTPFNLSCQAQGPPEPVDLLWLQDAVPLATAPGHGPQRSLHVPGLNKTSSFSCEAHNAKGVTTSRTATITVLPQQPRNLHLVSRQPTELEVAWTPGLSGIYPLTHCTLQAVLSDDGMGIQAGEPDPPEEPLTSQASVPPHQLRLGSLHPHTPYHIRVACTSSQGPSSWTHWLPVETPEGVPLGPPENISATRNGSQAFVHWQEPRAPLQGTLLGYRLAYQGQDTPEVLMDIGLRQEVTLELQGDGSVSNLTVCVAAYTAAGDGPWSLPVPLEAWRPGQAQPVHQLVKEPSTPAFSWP

Axl, sequence (P30530 whole entry): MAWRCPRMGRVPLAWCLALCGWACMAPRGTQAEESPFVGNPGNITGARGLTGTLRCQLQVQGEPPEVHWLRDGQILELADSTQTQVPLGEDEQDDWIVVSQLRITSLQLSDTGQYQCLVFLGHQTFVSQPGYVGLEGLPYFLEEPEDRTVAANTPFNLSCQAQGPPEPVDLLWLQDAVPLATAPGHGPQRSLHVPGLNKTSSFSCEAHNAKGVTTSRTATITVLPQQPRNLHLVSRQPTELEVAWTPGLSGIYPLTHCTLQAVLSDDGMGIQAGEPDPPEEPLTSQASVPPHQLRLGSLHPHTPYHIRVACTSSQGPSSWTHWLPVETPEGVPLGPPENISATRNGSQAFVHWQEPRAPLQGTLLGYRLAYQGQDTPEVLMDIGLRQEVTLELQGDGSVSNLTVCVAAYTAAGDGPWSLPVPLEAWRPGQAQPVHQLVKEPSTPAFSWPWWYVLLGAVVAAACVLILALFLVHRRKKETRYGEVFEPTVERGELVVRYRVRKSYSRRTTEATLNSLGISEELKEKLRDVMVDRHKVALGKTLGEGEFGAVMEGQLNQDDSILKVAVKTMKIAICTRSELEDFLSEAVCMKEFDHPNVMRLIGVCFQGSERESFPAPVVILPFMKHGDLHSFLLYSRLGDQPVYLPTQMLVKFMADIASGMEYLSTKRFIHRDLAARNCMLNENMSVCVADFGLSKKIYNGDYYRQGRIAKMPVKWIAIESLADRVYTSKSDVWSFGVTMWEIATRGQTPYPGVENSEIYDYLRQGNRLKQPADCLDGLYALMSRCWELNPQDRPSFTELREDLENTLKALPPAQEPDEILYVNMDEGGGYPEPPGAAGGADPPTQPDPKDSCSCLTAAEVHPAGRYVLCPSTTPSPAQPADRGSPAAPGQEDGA
human Axl expressed on the surface of cells, sequence (P30530 26-894): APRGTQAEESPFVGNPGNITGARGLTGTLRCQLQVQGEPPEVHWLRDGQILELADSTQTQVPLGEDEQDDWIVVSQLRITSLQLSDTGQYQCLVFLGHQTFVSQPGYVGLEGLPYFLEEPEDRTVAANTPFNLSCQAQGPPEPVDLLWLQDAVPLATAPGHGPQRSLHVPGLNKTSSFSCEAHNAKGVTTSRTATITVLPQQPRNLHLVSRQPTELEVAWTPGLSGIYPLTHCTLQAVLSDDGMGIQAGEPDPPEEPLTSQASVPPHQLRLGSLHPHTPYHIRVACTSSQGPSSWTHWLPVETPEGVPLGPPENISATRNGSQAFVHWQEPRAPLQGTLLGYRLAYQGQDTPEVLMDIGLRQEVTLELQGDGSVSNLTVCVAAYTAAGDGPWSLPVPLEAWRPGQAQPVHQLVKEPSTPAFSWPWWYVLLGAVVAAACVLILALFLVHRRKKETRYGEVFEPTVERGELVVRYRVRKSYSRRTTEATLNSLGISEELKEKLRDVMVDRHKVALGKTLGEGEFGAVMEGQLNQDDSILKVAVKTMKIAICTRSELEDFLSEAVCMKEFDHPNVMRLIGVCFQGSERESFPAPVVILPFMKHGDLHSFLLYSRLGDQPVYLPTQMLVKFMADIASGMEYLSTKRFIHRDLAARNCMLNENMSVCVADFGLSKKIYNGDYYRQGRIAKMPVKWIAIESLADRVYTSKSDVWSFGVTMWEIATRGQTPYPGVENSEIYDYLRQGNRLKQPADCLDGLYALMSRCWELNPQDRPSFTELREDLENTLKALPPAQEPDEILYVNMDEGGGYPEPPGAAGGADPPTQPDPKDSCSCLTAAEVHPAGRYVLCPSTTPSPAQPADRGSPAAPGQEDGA

B1: Ab301 (antibody, V domains shown)
VH: EVKLEASGGGLVQPGMSVKLSCTTSGFTFSDYWMEWVRQAPGKGLEWVAEIRNKVNNYATYYGKSVKGRFTISRDDSKSIVYLQMNSIRSEDTGIYYCNTLRLFAYWGQGTLVTVSA
VL: DIVMTQAPLSISVTPGESPSMSCRSSKSLLHRNGITYVYWYLQKPGKSPQLLIYRMSTLASGVPDRFSGSGSETDFTLKINKVEAEDVGIYYCGQLLENPYTFGAGTRLEIK
Kd (Axl): 0.466 nM | EC50 [1]: 0.025 µg/mL | EC50 [2]: 0.019 µg/mL

B2: Ab303 (antibody, V domains shown)
VH: EVQLVESGGGVVQPGRSLRLSCAASGFTFSDYWMEWVRQAPGKGLEWVAEIRNKVNNYATYYGKSVKGRFTISRDNSKNTLYLQMNSLRAEDTAVYYCNTLRLFAYWGQGTLVTVSS
VL: DIQMTQSPSSLSASVGDRVTITCRSSKSLLHRQGITYVYWYQQKPGKVPKLLIYRMSTLASGVPSRFSGSGSGTDFTLTISSLQPEDVATYYCGQLLENPYTFGQGTKLEIK
Kd (Axl): 0.386 nM | EC50 [2]: 0.019 µg/mL

B3: Ab304 (antibody, V domains shown)
VH: EVQLVESGGGLVQPGGSLRLSCAASGFTFSDYWMEWVRQAPGKGLEWVGEIRNKVNNYATYYGKSVKGRFTISRDESKNSLYLQMNSLKTEDTAVYYCNTLRLFAYWGQGTTVTVSS
VL: DIQMTQSPSSLSASVGDRVTITCRSSKSLLHRQGITYVYWYQQKPGKVPKLLIYRMSTLASGVPSRFSGSGSGTDFTLTISSLQPEDVATYYCGQLLENPYTFGQGTKLEIK
Kd (Axl): 0.909 nM | EC50 [2]: 0.018 µg/mL

B4: Ab302 (antibody, V domains shown)
VH: EVQLVESGGGLVKPGGSLKLSCAASGFTFSDYWMEWVRQAPGKGLEWVAEIRNKVNNYATYYGKSVKGRFTISRDDSKNTLYLQMNSLKTEDTAVYYCNTLRLFAYWGQGTLVTVSS
VL: DIQMTQSPSSLSASVGDRVTITCRSSKSLLHRQGITYVYWYQQKPGKVPKLLIYRMSTLASGVPSRFSGSGSGTDFTLTISSLQPEDVATYYCGQLLENPYTFGQGTKLEIK
Kd (Axl): 0.705 nM | EC50 [2]: 0.02 µg/mL

B5: Ab305 (antibody, V domains shown)
VH: EVQLVESGGGLVQPGRSLRLSCTASGFTFSDYWMEWVRQAPGKGLEWVGEIRNKVNNYATYYGKSVKGRFTISRDDSKSIAYLQMNSLKTEDTAVYYCNTLRLFAYWGQGTLVTVSA
VL: DIQMTQSPSSLSASVGDRVTITCRSSKSLLHRQGITYVYWYQQKPGKVPKLLIYRMSTLASGVPSRFSGSGSGTDFTLTISSLQPEDVATYYCGQLLENPYTFGQGTKLEIK
Kd (Axl): 1.55 nM | EC50 [2]: 0.019 µg/mL

From patent US20220177593A1 (published 2022)
